Experimental data published in article PMC9482650, “Quantitative fragmentomics allow affinity mapping of interactomes” (Nature Communications, 2022).

What was measured:
Assay in all cases: holdup assay
Design in all cases: key: below the threshold = too weak to quantify, mostly under pKd 3.1 to 4
Conditions in all cases: plain residues with an end cap or a label only (N-terminal biotin on a linker: ado-ado)
[1] = target: T1, GRIP1_5, Q9Y3R0
T1 sequence (Q9Y3R0 568-668, limits assumed, looked up): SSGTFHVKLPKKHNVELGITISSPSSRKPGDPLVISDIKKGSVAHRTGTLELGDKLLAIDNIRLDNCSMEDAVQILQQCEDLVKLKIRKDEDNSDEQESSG

[2] = target: NHERF4_1, Q86UT5-2
Sequence of NHERF4_1, Q86UT5-2 (Q86UT5 other isoform, or with tags, fused parts or gaps): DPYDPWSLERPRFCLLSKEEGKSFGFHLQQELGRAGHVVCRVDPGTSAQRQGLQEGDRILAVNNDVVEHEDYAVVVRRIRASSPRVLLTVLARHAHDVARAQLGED

[3] = target: IL16_3, Q14005
Sequence of IL16_3, Q14005 (Q14005 1107-1207): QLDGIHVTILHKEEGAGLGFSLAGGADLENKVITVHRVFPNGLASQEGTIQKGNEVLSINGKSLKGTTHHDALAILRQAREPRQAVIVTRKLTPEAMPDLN

[4] = target: LNX1_1, Q8TBB1
Sequence of LNX1_1, Q8TBB1 (Q8TBB1 261-371): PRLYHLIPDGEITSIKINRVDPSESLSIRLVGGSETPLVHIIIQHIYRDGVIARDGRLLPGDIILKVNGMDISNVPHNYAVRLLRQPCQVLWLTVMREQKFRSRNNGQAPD

[5] = target: T2, NHERF3_1, Q5T2W1
T2 sequence (Q5T2W1 4-100, limits assumed, looked up): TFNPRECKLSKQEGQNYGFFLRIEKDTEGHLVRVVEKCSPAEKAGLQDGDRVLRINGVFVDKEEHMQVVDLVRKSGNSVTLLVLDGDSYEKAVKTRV

[6] = target: FRMPD3, Q5JV73
Sequence of FRMPD3, Q5JV73 (Q5JV73 12-100): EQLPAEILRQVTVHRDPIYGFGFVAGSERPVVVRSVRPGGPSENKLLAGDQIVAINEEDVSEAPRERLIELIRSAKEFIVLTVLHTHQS

[7] = target: T3, DFNB31_3, Q9P202
T3 sequence (Q9P202 811-907, limits assumed, looked up): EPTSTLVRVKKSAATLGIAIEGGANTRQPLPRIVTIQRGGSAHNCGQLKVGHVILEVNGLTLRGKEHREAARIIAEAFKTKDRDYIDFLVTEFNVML

[8] = target: T4, LNX2_2, Q8N448
T4 sequence (Q8N448 334-432, limits assumed, looked up): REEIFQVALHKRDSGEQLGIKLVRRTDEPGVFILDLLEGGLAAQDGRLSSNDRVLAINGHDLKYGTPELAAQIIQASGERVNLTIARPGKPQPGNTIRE

[9] = target: T5, GRIP1_7, Q9Y3R0
T5 sequence (Q9Y3R0 999-1096, limits assumed, looked up): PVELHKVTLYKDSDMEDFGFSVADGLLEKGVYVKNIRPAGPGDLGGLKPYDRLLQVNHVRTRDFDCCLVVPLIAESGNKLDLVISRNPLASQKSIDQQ

[10] = target: MAGI1_2, Q96QZ7
Sequence of MAGI1_2, Q96QZ7 (Q96QZ7 456-580): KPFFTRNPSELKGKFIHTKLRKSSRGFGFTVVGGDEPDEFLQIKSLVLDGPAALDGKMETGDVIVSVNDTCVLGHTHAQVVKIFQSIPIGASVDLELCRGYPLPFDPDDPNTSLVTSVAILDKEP

[11] = target: Inadl_4, Q8NI35
Sequence of Inadl_4, Q8NI35 (Q8NI35 547-651): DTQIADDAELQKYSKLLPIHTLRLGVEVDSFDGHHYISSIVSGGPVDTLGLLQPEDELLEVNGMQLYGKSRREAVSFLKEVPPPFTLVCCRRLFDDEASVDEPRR

[12] = target: PTPN3, P26045
Sequence of PTPN3, P26045 (P26045 505-587): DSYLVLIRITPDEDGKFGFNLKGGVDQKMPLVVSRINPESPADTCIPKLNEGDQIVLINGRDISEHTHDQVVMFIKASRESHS

[13] = target: MAGI2_3, Q86UL8
Sequence of MAGI2_3, Q86UL8 (Q86UL8 600-682): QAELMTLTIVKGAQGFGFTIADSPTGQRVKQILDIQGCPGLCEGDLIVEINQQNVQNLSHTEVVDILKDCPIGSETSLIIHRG

[14] = target: T6, MPP2, Q14168
T6 sequence (Q14168 180-250, limits assumed, looked up): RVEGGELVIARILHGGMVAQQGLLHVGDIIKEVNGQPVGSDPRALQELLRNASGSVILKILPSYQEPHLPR

[15] = target: GRIP2_6, Q9C0E4
Sequence of GRIP2_6, Q9C0E4 (Q9C0E4 648-740): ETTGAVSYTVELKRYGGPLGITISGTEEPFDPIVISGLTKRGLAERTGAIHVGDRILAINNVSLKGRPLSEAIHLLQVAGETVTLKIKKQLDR

[16] = target: T7, LIN7C, Q9NUP9
T7 sequence (Q9NUP9 88-185, limits assumed, looked up): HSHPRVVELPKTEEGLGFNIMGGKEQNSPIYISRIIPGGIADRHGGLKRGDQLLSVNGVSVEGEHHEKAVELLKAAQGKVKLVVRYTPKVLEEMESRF

[17] = target: LIMK2, P53671
Sequence of LIMK2, P53671 (P53671 143-248): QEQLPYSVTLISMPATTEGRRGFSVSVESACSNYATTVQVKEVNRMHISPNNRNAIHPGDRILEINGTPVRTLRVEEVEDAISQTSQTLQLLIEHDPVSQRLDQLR

[18] = target: DLG1_1, Q12959
[19] = target: T8, DLG3_3, Q92796
T8 sequence (Q92796 374-475, limits assumed, looked up): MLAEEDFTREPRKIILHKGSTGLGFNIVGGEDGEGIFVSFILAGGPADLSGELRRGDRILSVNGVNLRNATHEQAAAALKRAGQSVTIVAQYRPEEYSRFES

[20] = target: T9, LNX2_3, Q8N448
T9 sequence (Q8N448 463-564, limits assumed, looked up): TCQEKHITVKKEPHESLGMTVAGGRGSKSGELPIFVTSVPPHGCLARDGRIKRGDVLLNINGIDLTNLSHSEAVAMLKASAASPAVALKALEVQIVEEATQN

[21] = target: T10, DVL3, Q92997
T10 sequence (Q92997 244-331, limits assumed, looked up): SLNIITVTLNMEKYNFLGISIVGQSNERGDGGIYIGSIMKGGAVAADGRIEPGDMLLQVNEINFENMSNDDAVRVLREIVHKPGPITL

[22] = target: SCRIB_2, Q14160
Sequence of SCRIB_2, Q14160 (Q14160 857-960): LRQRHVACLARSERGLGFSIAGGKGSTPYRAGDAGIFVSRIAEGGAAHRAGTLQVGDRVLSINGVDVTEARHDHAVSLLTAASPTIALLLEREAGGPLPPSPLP

[23] = target: T11, PTPN13_1, Q12923
T11 sequence (Q12923 1088-1188, limits assumed, looked up): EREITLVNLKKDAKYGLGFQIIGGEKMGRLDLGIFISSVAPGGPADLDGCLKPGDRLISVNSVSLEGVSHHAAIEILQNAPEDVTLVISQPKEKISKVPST

[24] = target: SCRIB_3, Q14160
Sequence of SCRIB_3, Q14160 (Q14160 999-1103): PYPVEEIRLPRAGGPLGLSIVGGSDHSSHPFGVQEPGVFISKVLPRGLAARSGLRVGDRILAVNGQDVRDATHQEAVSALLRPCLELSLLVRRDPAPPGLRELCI

[25] = target: TJP2_1, Q9UDY2
Sequence of TJP2_1, Q9UDY2 (Q9UDY2 24-128): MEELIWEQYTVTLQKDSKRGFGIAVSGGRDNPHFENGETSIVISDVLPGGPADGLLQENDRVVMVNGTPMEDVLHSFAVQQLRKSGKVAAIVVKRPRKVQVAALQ

[26] = target: T12, DFNB31_2, Q9P202
T12 sequence (Q9P202 274-371, limits assumed, looked up): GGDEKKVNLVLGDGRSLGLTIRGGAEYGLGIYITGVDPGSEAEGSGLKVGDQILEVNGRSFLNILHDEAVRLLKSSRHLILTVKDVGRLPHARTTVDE

For APIAGFSSFV [SDK2, Q58EX2], the pKd [1] was “below the threshold”, the pKd [2] was 3.59 and the pKd [3] was “below the threshold”. The pKd [4] was 5.16, the pKd [5] was 5.08 and the pKd [6] was “below the threshold”. The pKd [7] was “below the threshold”, the pKd [8] was 4.13 and the pKd [9] was “below the threshold”. For the same binder, the pKd [10] was “below the threshold”, the pKd [11] was “below the threshold” and the pKd [12] was 4.39. The pKd [13] was “below the threshold”, the pKd [14] was “below the threshold” and the pKd [15] was “below the threshold”. For the same binder, the pKd [16] was “below the threshold”, the pKd [17] was “below the threshold” and the pKd [18] was 4.21. For the same binder, the pKd [19] was “below the threshold”, the pKd [20] was “below the threshold” and the pKd [21] was 3.88. For the same binder, the pKd [22] was 3.62, the pKd [23] was “below the threshold” and the pKd [24] was 4.06. The pKd [25] was 4.19 and the pKd [26] was 3.52.

In the case of RFQQRMQTHV [KIRREL1, Q96J84], the pKd [1] is reported as “below the threshold”, the pKd [2] is reported as 3.7 and the pKd [3] is reported as “below the threshold”. The pKd [4] was “below the threshold”, the pKd [5] was 5.03 and the pKd [6] was “below the threshold”. For the same binder, the pKd [7] was 3.62, the pKd [8] was 4.08 and the pKd [9] was “below the threshold”. For the same binder, the pKd [10] was 5.41, the pKd [11] was “below the threshold” and the pKd [12] was 4.2. The pKd [13] was 3.75, the pKd [14] was “below the threshold” and the pKd [15] was 3.54. For the same binder, the pKd [16] was 3.69, the pKd [17] was “below the threshold” and the pKd [18] was 4.17. For the same binder, the pKd [19] was 3.94, the pKd [20] was “below the threshold” and the pKd [21] was “below the threshold”. For the same binder, the pKd [22] was 4.1, the pKd [23] was “below the threshold” and the pKd [24] was 4.33. The pKd [25] was 4.82 and the pKd [26] was “below the threshold”.

With REEPDHSTEV [CCRL2, O00421] the pKd [1] was “below the threshold”, the pKd [2] was 3.53 and the pKd [3] was “below the threshold”. It also gave a pKd [4] of 4.09, a pKd [5] of 4.57 and a pKd [6] of 3.6. The pKd [7] was “below the threshold”, the pKd [8] was 4.09 and the pKd [9] was 3.56. For the same binder, the pKd [10] was “below the threshold”, the pKd [11] was “below the threshold” and the pKd [12] was 4.79. The pKd [13] was “below the threshold”, the pKd [14] was “below the threshold” and the pKd [15] was 3.54. The pKd [16] was “below the threshold”, the pKd [17] was “below the threshold” and the pKd [18] was 4.49. For the same binder, the pKd [19] was 3.6, the pKd [20] was “below the threshold” and the pKd [21] was 3.48. For the same binder, the pKd [22] was 4.32, the pKd [23] was “below the threshold” and the pKd [24] was 4.35. For the same binder, the pKd [25] was “below the threshold” and the pKd [26] was “below the threshold”.

In the case of QSYPSKHDYV [CLDN18, P56856], the pKd [1] is reported as “below the threshold”, the pKd [2] is reported as 3.81 and the pKd [3] is reported as “below the threshold”. For the same binder, the pKd [4] was 3.73, the pKd [5] was 4.26 and the pKd [6] was “below the threshold”. The pKd [7] was “below the threshold”, the pKd [8] was 4.17 and the pKd [9] was “below the threshold”. The pKd [10] was “below the threshold”, the pKd [11] was “below the threshold” and the pKd [12] was “below the threshold”. The pKd [13] was 3.62, the pKd [14] was “below the threshold” and the pKd [15] was “below the threshold”. The pKd [16] was “below the threshold”, the pKd [17] was “below the threshold” and the pKd [18] was “below the threshold”. For the same binder, the pKd [19] was “below the threshold”, the pKd [20] was “below the threshold” and the pKd [21] was 3.7. For the same binder, the pKd [22] was “below the threshold”, the pKd [23] was “below the threshold” and the pKd [24] was “below the threshold”. For the same binder, the pKd [25] was 4.16 and the pKd [26] was “below the threshold”.

EPQYQPGENL [SRC, P12931] was tested, and the pKd [1] was “below the threshold”, the pKd [2] was 3.59 and the pKd [3] was “below the threshold”. The pKd [4] was “below the threshold”, the pKd [5] was 3.82 and the pKd [6] was “below the threshold”. The pKd [7] was “below the threshold”, the pKd [8] was “below the threshold” and the pKd [9] was “below the threshold”. The pKd [10] was “below the threshold”, the pKd [11] was “below the threshold” and the pKd [12] was “below the threshold”. For the same binder, the pKd [13] was “below the threshold”, the pKd [14] was “below the threshold” and the pKd [15] was “below the threshold”. For the same binder, the pKd [16] was “below the threshold”, the pKd [17] was “below the threshold” and the pKd [18] was “below the threshold”. The pKd [19] was “below the threshold”, the pKd [20] was “below the threshold” and the pKd [21] was “below the threshold”. For the same binder, the pKd [22] was “below the threshold”, the pKd [23] was “below the threshold” and the pKd [24] was 3.71. For the same binder, the pKd [25] was “below the threshold” and the pKd [26] was “below the threshold”.

With DGVNEKVSCV [HTR2A, P28223] the pKd [1] was “below the threshold”, the pKd [2] was “below the threshold” and the pKd [3] was “below the threshold”. The pKd [4] was 4.48, the pKd [5] was “below the threshold” and the pKd [6] was “below the threshold”. The pKd [7] was 3.88, the pKd [8] was 4.42 and the pKd [9] was “below the threshold”. For the same binder, the pKd [10] was “below the threshold”, the pKd [11] was “below the threshold” and the pKd [12] was 4.86. For the same binder, the pKd [13] was 4.72, the pKd [14] was “below the threshold” and the pKd [15] was “below the threshold”. For the same binder, the pKd [16] was 3.78, the pKd [17] was “below the threshold” and the pKd [18] was 3.84. The pKd [19] was “below the threshold”, the pKd [20] was “below the threshold” and the pKd [21] was “below the threshold”. The pKd [22] was 3.64, the pKd [23] was “below the threshold” and the pKd [24] was 3.97. The pKd [25] was 3.82 and the pKd [26] was “below the threshold”.
